The text below walks through data of paper PMC3698177.

The target of this assay is phosphorylated β-catenin (UniProt P35222). The assay can be described thus: co-immunoprecipitation (IP-GFP), western blot densitometry. Conditions: Triton-X100 cell extracts containing 50 mM NaF; SW480 extract as source of β-catenin; parent: 1.
Chain of UniProt P35222 (P35222 whole entry): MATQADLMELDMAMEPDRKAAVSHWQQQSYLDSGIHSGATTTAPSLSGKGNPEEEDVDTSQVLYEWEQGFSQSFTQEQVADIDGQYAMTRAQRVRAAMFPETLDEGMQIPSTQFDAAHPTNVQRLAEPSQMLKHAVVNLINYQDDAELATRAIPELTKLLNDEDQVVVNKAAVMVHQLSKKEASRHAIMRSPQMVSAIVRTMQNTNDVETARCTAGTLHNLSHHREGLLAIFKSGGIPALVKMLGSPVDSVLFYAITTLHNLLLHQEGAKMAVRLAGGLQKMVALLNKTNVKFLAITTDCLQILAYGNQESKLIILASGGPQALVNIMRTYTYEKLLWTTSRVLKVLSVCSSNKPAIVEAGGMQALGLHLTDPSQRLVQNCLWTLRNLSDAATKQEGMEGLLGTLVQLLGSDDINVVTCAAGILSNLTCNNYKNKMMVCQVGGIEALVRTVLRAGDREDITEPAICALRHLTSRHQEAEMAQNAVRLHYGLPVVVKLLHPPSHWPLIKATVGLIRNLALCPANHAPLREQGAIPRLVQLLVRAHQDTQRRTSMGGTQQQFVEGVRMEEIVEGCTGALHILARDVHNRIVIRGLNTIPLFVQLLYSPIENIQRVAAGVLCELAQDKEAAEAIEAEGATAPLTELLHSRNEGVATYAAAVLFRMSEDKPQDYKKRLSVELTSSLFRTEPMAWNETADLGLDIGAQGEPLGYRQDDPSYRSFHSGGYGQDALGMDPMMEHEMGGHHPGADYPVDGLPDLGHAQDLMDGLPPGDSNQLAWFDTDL

Take yAPC1289 (from UniProt P25054) 20R1µ: the other: Ratio Phospho/total turned out to be 0.9.
